Experimental data reported in patent US20220125892A1.

Target: mannose-6-phosphate receptor on human neuroblastoma cells (SH-SY5Y) (human)
Test: cell-based or functional assay

Which KUPTAKE, net M6PR mediated uptake by SH-SY5Y human neuroblastoma cells (4MUbetaGlc activity in lysates, hyperbolic fit) does the source give for “OxyGCase (uncapped and demannosylated recombinant human glucocerebrosidase variant produced in Yarrowia lipolytica) (enzyme)” here?
Its KUPTAKE, net M6PR mediated uptake by SH-SY5Y human neuroblastoma cells (4MUbetaGlc activity in lysates, hyperbolic fit) is 1.9 nM.
